IntAct's records for PubMed 29276004

B1: Rho-related BTB domain-containing protein 2 (Homo sapiens), Q9BYZ6-2 (parent)
chain: MQAWRKGPDGPQKTSSDSMSRLMDSDMDYERPNVETIKCVVVGDNAVGKTRLICARACNATLTQYQLLATHVPTVWAIDQYRVCQEVLERSRDVVDDVSVSLRLWDTFGDHHKDRRFAYGRSDVVVLCFSIANPNSLHHVKTMWYPEIKHFCPRAPVILVGCQLDLRYADLEAVNRARRPLARPIKPNEILPPEKGREVAKELGIPYYETSVVAQFGIKDVFDNAIRAALISRRHLQFWKSHLRNVQRPLLQAPFLPPKPPPPIIVVPDPPSSSEECPAHLLEDPLCADVILVLQERVRIFAHKIYLSTSSSKFYDLFLMDLSEGELGGPSEPGGTHPEDHQGHSDQHHHHHHHHHGRDFLLRAASFDVCESVDEAGGSGPAGLRASTSDGILRGNGTGYLPGRGRVLSSWSRAFVSIQEEMAEDPLTYKSRLMVVVKMDSSIQPGPFRAVLKYLYTGELDENERDLMHIAHIAELLEVFDLRMMVANILNNEAFMNQEITKAFHVRRTNRVKECLAKGTFSDVTFILDDGTISAHKPLLISSCDWMAAMFGGPFVESSTREVVFPYTSKSCMRAVLEYLYTGMFTSSPDLDDMKLIILANRLCLPHLVALTEQYTVTGLMEATQMMVDIDGDVLVFLELAQFHCAYQLADWCLHHICTNYNNVCRKFPRDMKAMSPENQEYFEKHRWPPVWYLKEEDHYQRARKEREKEDYLHLKRQPKRRWLFWNSPSSPSSSAASSSSPSSSSAVV

Variants of: B1
Details: with cul3_human CUL3, Q13618

| Variant | effect of a mutation on the interaction |
| --- | --- |
| R511Q | with no effect |
| A474G | with no effect |
| R483H | with no effect |
